Source: PMC8359183, “The periplasmic domains of Vibriocholerae ToxR and ToxS are forming a strong heterodimeric complex independent on the redox state of ToxR cysteines” (Molecular Microbiology, 2021)

Columns and labels:
[1] = molecular target: T1, ToxSp H10_S11insC labelled with 5-iodoacetamidofluorescein (Vibrio cholerae); assay: fluorescence polarisation; details: both partners purified
T1 construct: also called FITC ToxSp H10_S11insC
T1 chain: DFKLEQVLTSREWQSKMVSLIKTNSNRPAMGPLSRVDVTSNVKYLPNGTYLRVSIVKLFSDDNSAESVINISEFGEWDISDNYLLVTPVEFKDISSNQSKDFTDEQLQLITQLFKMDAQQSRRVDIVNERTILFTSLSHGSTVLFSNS

[2] = molecular target: T2, periplasmic domain of Vibrio cholerae ToxS (ToxSp) (Vibrio cholerae); assay: SEC-MALS; details: both partners purified
T2 chain: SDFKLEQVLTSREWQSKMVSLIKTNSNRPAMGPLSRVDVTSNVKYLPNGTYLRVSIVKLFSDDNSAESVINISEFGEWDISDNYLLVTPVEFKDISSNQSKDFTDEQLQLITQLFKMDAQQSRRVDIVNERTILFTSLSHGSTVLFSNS

B1: periplasmic domain of Vibrio cholerae ToxR, oxidized, with an intramolecular disulfide bond (ToxRp-ox) (domain or fragment)
chain: PSQTSFKPLTVVDGVAVNMPNNHPDLSNWLPSIELCVKKYNEKHTGGLKPIEVIATGGQNNQLTLNYIHSPEVSGENITLRIVANPNDAIKVCE
notes: also called pToxR-ox; ToxRp-ox-V.c
- Kd [1]: 11.6 ± 3.4 nM
- stoichiometry N [2]: 1 ToxRp per ToxSp
